Reference: patent US20110082285A1 (STAIDSON BEIJING PHARMACEUTICAL, published 2011)

Target: T1, P75 (UniProt P08138 29-427)
T1 construct: whole, on cells
T1 sequence (looked up): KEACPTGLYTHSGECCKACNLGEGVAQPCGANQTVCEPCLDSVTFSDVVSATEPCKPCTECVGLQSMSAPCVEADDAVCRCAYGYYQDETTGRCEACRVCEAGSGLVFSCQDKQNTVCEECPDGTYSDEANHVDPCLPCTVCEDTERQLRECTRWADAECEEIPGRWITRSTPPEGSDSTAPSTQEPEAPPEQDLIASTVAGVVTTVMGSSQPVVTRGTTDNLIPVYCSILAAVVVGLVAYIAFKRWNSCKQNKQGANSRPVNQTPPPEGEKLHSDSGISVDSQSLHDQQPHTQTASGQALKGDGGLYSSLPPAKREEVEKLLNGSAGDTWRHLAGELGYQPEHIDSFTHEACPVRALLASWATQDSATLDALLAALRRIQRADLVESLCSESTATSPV
Test: I^125-labeled ligand crosslinked to A875 tumor cells expressing P75, immunoprecipitation, SDS-PAGE, autoradiography
Method: The WT mouse NGF and mutant NGF was labeled with I¹²⁵, then added to both the cells expressing TrkA and the A875 tumor cells expressing P75. The ligand and receptor were crosslinked by N-hydroxysuccinimidyl-4-azidobenzoate, the cells were lysed, and the cross-linked complex was immunoprecipitated overnight at 4° C.

B1: mutant NGF (mouse NGF-β mature peptide with Lys32, Lys34 and Glu35 changed to Ala) (ligand)
chain: SSTHPVFHMGEFSVCDSVSVWVGDKTTATDIAGAAVTVLAEVNINNSVFRQYFFETKCRASNPVESGCRGIDSKHWNSYCTTTHTFVKALTTDEKQAAWRFIRIDTACVCVLSRKATRRG
modifications: Labelled with I^125 (labelled residues not stated). Disulfide-bonded monomer; NGF-β acts as a non-covalent homodimer, one chain given.
notes: also called mutant NGF-β; NGF mutant
  binding result: no binding
